Measured values: patent US20190262327A1, “COMBINATION OF A BACE INHIBITOR AND AN ANTIBODY OR ANTIGEN-BINDING FRAGMENT FOR THE TREATMENT OF A DISORDER ASSOCIATED WITH THE ACCUMULATION OF AMYLOID BETA” (ASTRAZENECA AB, priority 2016, published 2019)

Columns and labels:
[1] = biological target: T1, human Amyloid beta 1-42 peptide (Homo sapiens, UniProt P05067); assay: Surface Plasmon Resonance kinetic profiling of purified scFv (ProteOn); assay type: binding; details: biotinylated human Amyloid beta 1-42 on streptavidin chip
T1 construct: biotinylated human Amyloid beta 1-42 peptide (rpeptide, USA; cat: A1117); purchased rPeptide, USA A1117; host or cells: synthetic peptide
T1 sequence (P05067 672-713): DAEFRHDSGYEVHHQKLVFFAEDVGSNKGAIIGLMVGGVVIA
Description: Surface Plasmon Resonance was used to analyse the purified scFv clones that had shown significant improvement in binding affinity for human Amyloid beta 1-42 peptide over the parent sequence, Abet0144-GL, in the HTRF™ epitope competition assay (sections 1.3-1.6). Briefly, the ProteOn Protein Interaction Array System (BioRad, USA) was used to assess the kinetic parameters of the interaction between each purified scFv and synthetically produced human Amyloid beta 1-42 peptide. These experiments were performed essentially as described by Karlsson et al. (Karlsson et al., 1991).
The affinity of binding between each test scFv and human Amyloid beta 1-42 was estimated using assays in which biotinylated synthetic human Amyloid beta 1-42 peptide (rPeptide, USA; cat: Al 117) was non-covalently bound via a biotin/streptavidin interaction to a proprietary streptavidin chip (NTA 176-5021) at five different surface densities. The chip surface was regenerated between cycles by a single 60 second injection of 10 mM Glycine pH 2.0 to remove scFv bound to the peptide.
Each scFv at 100-200 nM was sequentially passed over the peptide surface for a sufficient amount of time to observe sensorgrams that could be fitted to an appropriate binding model with confidence. An irrelevant scFv blank was subtracted from the main dataset to reduce the impact of any buffer artefacts or non-specific binding effects. An appropriate binding model was then fitted to the data.

[2] = biological target: T1, human Amyloid beta 1-42 peptide; assay: Abet0144-GL HTRF epitope competition assay; assay type: binding; details: purified competitor scFv; inhibition of human Amyloid beta 1-42 : Abet0144-GL IgG1-TM complex
Method: Two thousand and twenty four scFv chosen at random from selection rounds 3 and 4 of the targeted mutagenesis approach described in section 1.2 were expressed in bacteria to produce unpurified periplasmic scFv. Those scFv capable of binding synthetic human amyloid beta 1-42 peptide via the same epitope as Abet0144-GL IgG1-TM were elucidated in a competition format assay, using the HTRF™ platform. Specifically, fluorescence resonance energy transfer (FRET) was measured between streptavidin cryptate (associated with biotinylated amyloid beta 1-42 peptide) and anti-human Fc XL665 (associated with Abet0144-GL IgG1-TM) in the presence of a single concentration of each unpurified periplasmic test scFv.
A ‘Total’ binding signal was determined by analysing the binding of Abet0144-GL IgG1-TM to synthetic human Amyloid beta 1-42 peptide in the absence of competitor peptide. The ‘Sample’ signals were derived from analysing the binding of Abet0144-GL IgG1-TM to synthetic human Amyloid beta 1-42 peptide in the presence of a test scFv sample. Finally, a ‘Cryptate Blank’ signal was determined by analysing the fluorescence mediated by the detection reagent cocktail alone.
Unpurified periplasmic scFv were supplied in sample buffer consisting of 50 mM MOPS, pH 7.4, 0.5 mM EDTA, and 0.5 M sucrose. […] Assay plates were sealed and then incubated for 3 hours at room temperature in the dark, prior to measuring time-resolved fluorescence at 620 and 665 nm emission wavelengths on a fluorescence plate reader.
Data were analysed by calculating % Delta F values for each sample. % Delta F was determined according to equation 1. […]
Data were again analysed by calculating the % Delta F and % Total binding values for each sample. In addition, a % Inhibition value for each concentration of purified scFv was also calculated as described in Equation 3: […]

Molecule | ka [1] [M⁻¹ s⁻¹] | kd [1] [s⁻¹] | ka ([1]; listed as Abet0380 scFv) [M⁻¹ s⁻¹] | kd ([1]; listed as Abet0380 scFv) [s⁻¹] | potency over the parent Abet0144-GL scFv sequence (FIG. 1) [2]
Abet0380: optimized anti-Aβ1-42 clone derived from Abet0144-GL, non-germlined (protein, left off: small tags and cut ends, optimized anti-Aβ1-42 clone derived from Abet0144-GL, non-germlined) scFv (part 1 of 2): EVQLLESGGGLVQPGGSLRLSCAASMGNFNYQTMWWVRQAPGRGLEWVSVIGKTNENIAYADSVKGRFTISRDNSKNTLYLQMNSLRAEDTAVYYCAREWMDHSRPYYYYGMDVWGQGTLVTVSS scFv (part 2 of 2): SYELTQPPSVSVSPGQTASITCSGHNLEDKFASWYQQKPGQSPVLVIYRDDKRPSGIPERFSASNSGHTATLTISGTQATDEADYYCSSQDTVTRVFGGGTKLTVL | 193000 | 2.85e-05 | 193000 | 2.85e-05 | significant improvement in potency
Abet0383: optimized anti-Aβ1-42 clone derived from Abet0144-GL (protein, left off: small tags and cut ends, optimized anti-Aβ1-42 clone derived from Abet0144-GL) scFv (part 1 of 2): EVQLLESGGGLVQPGGSLKLSCAASGFTFDWYPMWWVRQAPGKRLEWISVIGADNAKIAYADSVKGRFTISRDNSKNTLYLQMNSLRAEDTAVYYCAREWMGHSRPYYYYGMDVWGQGTPVTVSS scFv (part 2 of 2): SYELTQPPSVSVSPGQTASITCSGHNLGDKFASWYQQKPGQSPVLVIYRDDKRPSGIPERFSASNSGHTATLTISGTQATDEADYYCSSQDTVTRVFGGGTKLTVL | 181000 | 3.94e-05 | – | – | –
Abet0319: optimized anti-Aβ1-42 clone derived from Abet0144-GL (protein, left off: small tags and cut ends, optimized anti-Aβ1-42 clone derived from Abet0144-GL) scFv (part 1 of 2): EVQLLESGGGLVQPGGSLRLSCAASVSVYNKDTMWWVRQAPGKGLEWVSVIGSSGGTTVYADSVKGRFTISRDNSKNTLYLQMNSLRAEDTAVYYCAREWMDHSRPYYYYGMDVWGQGTLVTVSS scFv (part 2 of 2): SYELTQPPSVSVSPGQTASITCSGHNIMDKWVSWYQQKPGRSPALVIYRDDKRPSGIPERFSASNSGHTATLTISGTQATDEADYYCSSQDTVTRVFGGGTKLTVL | 329000 | 0.000129 | – | – | –
Abet0381: optimized anti-Aβ1-42 clone derived from Abet0144-GL (protein, left off: small tags and cut ends, optimized anti-Aβ1-42 clone derived from Abet0144-GL) scFv (part 1 of 2): EVQLLESGGGLVQPGGSLRLSCAASSPSFPRETMWWVRQAPGKGLEWVSVIGTQPNRLTYADSVKGRFTISRDNSKNTLYLQMNSLRAEDTAVYYCAREWMDHSRPYYYYGIDVWGQGTLVTVSP scFv (part 2 of 2): SYELTQPPSVSASPGQTASITCSGHNLEDKFVSWYQQKPGQSPVLVIYRDDKRPSGIPERFSASNSGHTATLTISGTQATDEANYYCSSQDTVTRAFGGGTKLTVL | 213000 | 5.14e-05 | – | – | –
Abet0377: optimized anti-Aβ1-42 clone from quaternary library (protein, left off: small tags and cut ends, optimized anti-Aβ1-42 clone from quaternary library) scFv (part 1 of 2): EVQLLESGGGLVQPGGSLRLSCAASGFNFNEQTLWWVRQAPGKGLEWVSVIGVGTKNIAYADTVKGRFTISRDNSKNTLYLQMNSLRAEDTAVYYCAREWMDHSRPYYYYGMDVWGQGTLVTVSS scFv (part 2 of 2): SYELTQPPSVSVSPGQTASITCSGHNTEHKWISWYQQKPGQSPVLVIYRDDKRPSGIPERFSATNSGHTATLTISGTQATDEADYYCSSQDTVTRVFGGGTKLTVL | 196000 | 3.02e-05 | – | – | significant improvement in potency
Abet0321b: optimized anti-Aβ1-42 clone derived from Abet0144-GL (protein, left off: small tags and cut ends, optimized anti-Aβ1-42 clone derived from Abet0144-GL) scFv (part 1 of 2): EVQLLESGGGLVQPGGSLRLSCAASAYHSNHDPMWWVRQAPGKGLEWVSVIGSSGGTTAYADSVKGRFTISRDNSKNTLYLQMNSLRAEDTAVYYCAREWMDHSRPYYYYGMDVWGQGTLVTVSS scFv (part 2 of 2): SYELTQPPSVSVSPGQTASITCSGHNLEDKFASWYQQKPGQSPVLIIYRDDKRPSGIPERFSASNSGHTATLTISGTQATDEADYYCSSQDTVTRVFGGGTKLTVL | 150000 | 3.33e-05 | – | – | –
Abet0369: optimized anti-Aβ1-42 clone derived from Abet0144-GL (protein, left off: small tags and cut ends, optimized anti-Aβ1-42 clone derived from Abet0144-GL) scFv (part 1 of 2): EVQLLESGGGLVQPGGSLRLSCAASSFQISKNTMWWVRRAPGKGLEWVSVIGKDETRFNYADSVKGRFTISRDNSKNTLYLQMNSLRAEDTAVYYCAREWMDHSRPYYYYGMDVWGQGTLVTVSS scFv (part 2 of 2): SYGLTQPPSVSVSPGQTASITCSGRNIGDSWVAWYQQKPGQSPVLVIYRDDKRPSGIPERFSASNSGHTATLTISGTQATDEADYYCSSQDTVTRVFGGGTKLTVL | 327000 | 4.34e-05 | – | – | significant improvement in potency
